# According to article PMC3841738 (Genes & Development, 2013):
# B1: NtrC1 ATPase domain (Aquifex aeolicus) (domain or fragment)
# chain: LRKENELLRREKDLKEEEYVFESPKMKEILEKIKKISCAECPVLITGESGVGKEVVARLIHKLSDRSKEPFVALNVASIPRDIFEAELFGYEKGAFTGAVSSKEGFFELADGGTLFLDEIGELSLEAQAKLLRVIESGKFYRLGGRKEIEVNVRILAATNRNIKELVKEGKFREDLYYRLGVIEIEIPPLRERKEDIIPLANHFLKKFSRKYAKEVEGFTKSAQELLLSYPWYGNVRELKNVIERAVLFSEGKFIDRGELSCLVNSK
# Target: the molecule itself
# Test: SAXS
protein,measurement,value
B1,stoichiometry N,7
